# From paper PMC3728543, “Structure-Based Mechanism for Early PLP-Mediated Steps of Rabbit Cytosolic Serine Hydroxymethyltransferase Reaction” (BioMed Research International, 2013)
# Positions count from the first letter of the chain named. Names may count otherwise.
# B1: rabbit cytosolic serine hydroxymethyltransferase, wild type (enzyme, UniProt P07511 1-484, looked up)
# chain: MATAVNGAPRDAALWSSHEQMLAQPLKDSDAEVYDIIKKESNRQRVGLELIASENFASRAVLEALGSCLNNKYSEGYPGQRYYGGTEHIDELETLCQKRALQAYGLDPQCWGVNVQPYSGSPANFAVYTALVEPHGRIMGLDLPDGGHLTHGFMTDKKKISATSIFFESMAYKVNPDTGYIDYDRLEENARLFHPKLIIAGTSCYSRNLDYGRLRKIADENGAYLMADMAHISGLVVAGVVPSPFEHCHVVTTTTHKTLRGCRAGMIFYRRGVRSVDPKTGKEILYNLESLINSAVFPGLQGGPHNHAIAGVAVALKQAMTPEFKEYQRQVVANCRALSAALVELGYKIVTGGSDNHLILVDLRSKGTDGGRAEKVLEACSIACNKNTCPGDKSALRPSGLRLGTPALTSRGLLEKDFQKVAHFIHRGIELTVQIQDDTGPRATLKEFKEKLAGDEKHQRAVRALRQEVESFAALFPLPGLPGF
# modifications: pyridoxal 5'-phosphate bound as internal aldimine to the epsilon-amino group of Lys257
# notes: rabbit cytosolic serine hydroxymethyltransferase (rcSHMT, EC 2.1.2.1); cDNA in the pET22b vector; the wild type probably came the same way; also called rcSHMT; wild type rcSHMT
# B2: rabbit cytosolic serine hydroxymethyltransferase T254A mutant (enzyme, UniProt P07511 1-484, looked up)
# chain: B1 chain with T254A
# modifications: pyridoxal 5'-phosphate bound to Lys257 (internal aldimine; gem-diamine with glycine or L-serine)
# notes: rabbit cytosolic serine hydroxymethyltransferase (rcSHMT) with T254A; cDNA in the pET22b vector; numbering is that for rcSHMT; also called T254A rcSHMT
# B3: rabbit cytosolic serine hydroxymethyltransferase T254C mutant (enzyme, UniProt P07511 1-484, looked up)
# chain: B1 chain with T254C
# modifications: pyridoxal 5'-phosphate bound to Lys257 (internal aldimine; gem-diamine with glycine or L-serine)
# notes: rabbit cytosolic serine hydroxymethyltransferase (rcSHMT) with T254C; cDNA in the pET22b vector; numbering is that for rcSHMT; also called T254C rcSHMT
# Biological target: the molecule itself
# Experiment: crystal structure; crystals from 2-3% PEG4000, 20 mM K2HPO4/KH2PO4, 50 mM potassium MES or sodium HEPES pH 7.0, room temperature, protein 50 mg/mL; unliganded or with 60 mM glycine or L-serine; space group P41 with a tetramer per asymmetric unit (T254C-glycine: P41212, a dimer per asymmetric unit)
row,Protein,stoichiometry N
1,B1,4
2,B2,4
3,B3,4
